This test addresses CD46 (UniProt P15529). Description: Kd determination, method not stated (column head 'Kd (Oleks)').
Chain of UniProt P15529 (P15529 35-343): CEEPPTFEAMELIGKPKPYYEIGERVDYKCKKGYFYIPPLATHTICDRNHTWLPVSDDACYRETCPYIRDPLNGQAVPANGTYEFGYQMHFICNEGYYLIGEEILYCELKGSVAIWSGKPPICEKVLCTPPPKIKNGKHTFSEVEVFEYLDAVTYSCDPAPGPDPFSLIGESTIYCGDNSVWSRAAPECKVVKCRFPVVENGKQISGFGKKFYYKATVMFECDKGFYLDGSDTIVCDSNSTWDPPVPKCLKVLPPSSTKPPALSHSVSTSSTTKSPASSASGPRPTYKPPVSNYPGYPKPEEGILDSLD
What is called Kd is the free concentration of one partner at which half of the binding sites on the other are occupied at equilibrium, for simple one-to-one binding. A higher Kd goes with a looser complex. In the case of Ad11 knob (from UniProt P35774 123-325), the Kd was determined as 11.2 nM.
As for wtAd35(207Asp) knob, the Kd came to 15 nM.
For the substance “Mutated Ad35 Knob A8: Ile192Val Ile256Val (from UniProt Q92854)”, the Kd was 13.7 nM. The Kd values of the last two substances are within 1.5-fold of each other.

Values taken from patent publication US20240301362A1.
